Usually EC50 stands for the midpoint of the concentration-response curve. Usually Kd stands for the concentration at which binding is half-saturated. A low value points to higher affinity.

The values below come from publication PMC9340783, “Development of a fully human anti‐GITR antibody with potent antitumor activity using H2L2 mice” (FEBS Open Bio, 2022).

Residue numbers refer to the chain shown, from its start. Names and notes keep the numbering of the source.

T1: cynoGITR on 293F‐cynoGITR cells (Macaca fascicularis)
T1 construct: also called 293F‐cGITR
T1 chain: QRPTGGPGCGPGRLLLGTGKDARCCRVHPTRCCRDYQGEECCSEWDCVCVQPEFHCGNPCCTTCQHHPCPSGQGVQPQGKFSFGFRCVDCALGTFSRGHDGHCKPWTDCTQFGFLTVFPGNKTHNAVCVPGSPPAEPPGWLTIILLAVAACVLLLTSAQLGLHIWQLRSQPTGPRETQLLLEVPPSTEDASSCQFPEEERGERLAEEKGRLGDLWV

T2: cynoGITR ECD hFc (Macaca fascicularis)
T2 construct: cynomolgus GITR, extracellular domain, Gln20-Glu155, NCBI XP_005545180.1; also called cynoGITR protein; cGITR; source: FreeStyle 293F, transiently transfected, purified by protein A
T2 chain: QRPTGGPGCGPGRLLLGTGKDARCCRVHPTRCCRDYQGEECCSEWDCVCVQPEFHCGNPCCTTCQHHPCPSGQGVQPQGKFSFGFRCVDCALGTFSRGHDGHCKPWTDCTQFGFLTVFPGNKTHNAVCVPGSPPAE

B1: hab070 (antibody, V domains shown)
VH: QVQLVESGGGVVQPGRSLRLSCAASGFTFSSYGMHWVRQAPGKGLEWVAVIWYETSNKFYVDSVKGRFTISRDNSKNTLYLQMNSLRAEDTAVYYCARYGASSGWYWYFDLWGRGTLVTVSS
VL: DIQLTQSPSFLSASVGDRVTITCRASQGISSFLAWYQQKPGKAPKLLIYAASTLQSGVPSRFSGSGSGTEFTLTISSLQPEDFATYCCQQLNSYPFTFGQGTKLEIK
notes: 3503‐hab070‐VH; 3503‐hab070‐Vk; Whole antibody, human IgG1 heavy chain constant region, human kappa light chain constant region; source: FreeStyle 293F, transiently co-transfected, purified from culture supernatant
B2: hab076 (antibody, V domains shown)
VH: B1 VH with F59Y, V61A
VL: B1 VL with F32Y
notes: 3503‐hab076‐VH; 3503‐hab076‐Vk; Whole antibody, human IgG1 heavy chain constant region, human kappa light chain constant region; source: FreeStyle 293F, transiently co-transfected, purified from culture supernatant
B3: hab070e1 (antibody, V domains shown)
VH: B1 VH
VL: B1 VL with C87Y
notes: as the VH of m14 (3503‐hab070‐VH); 3503‐hab070‐Vk(C2Y); the substitution is against the VL of m14 (Cys in FR3 of VL); position not given; Whole antibody, human IgG1 heavy chain constant region, human kappa light chain constant region; also called hab70e1; source: FreeStyle 293F, transiently co-transfected, purified from culture supernatant
B4: Tab9H6v3 (antibody, V domains shown)
VH: QVQLVESGGGVVQPGRSLRLSCVASGFTFSSYGMHWIRQAPGKGLEWVAVIWYEGSNKYYAESVKGRFTISRDNSKNTLYLQMNSLRAEDTAVYYCARGGRLGKDYYSGMDVWGQGTTVTVSS
VL: DIQMTQSPSSLSASVGDRVTITCRASQGIRNDLGWYQQKPGKAPKRLIYATSSLQSGVPSRFSGSGSGTEFTLTISSLQPEDFATYYCLQHNTYPWTFGQGTKVEIK
notes: heavy chain variable region of clone 9H6v3 (AMGEN INC.); light chain variable region of clone 9H6v3 (AMGEN INC.)
B5: hab019e2 (antibody, V domains shown)
VH: QVQLVESGGGVVQPGRSLRLSCAASGFTFSSYGMHWVRQAPGKGLEWVAVIWYAGSRKFYADSVEGRFTISRDNSKNTLYLQMNSLRAEDTAVYYCARGGSLEGGFFYYGMDVWGQGTTVTVSS
VL: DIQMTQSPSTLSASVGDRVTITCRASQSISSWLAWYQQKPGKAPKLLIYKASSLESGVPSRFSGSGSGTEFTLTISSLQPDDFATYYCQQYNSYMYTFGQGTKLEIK
notes: 3503‐hab019‐VH(EG + NLA); positions not given; as the VL of m12 (3503‐hab019‐Vk); Whole antibody, human IgG1 heavy chain constant region, human kappa light chain constant region; also called hab19e2; source: FreeStyle 293F, transiently co-transfected, purified from culture supernatant

T3 sequence (Q9Y5U5 26-241): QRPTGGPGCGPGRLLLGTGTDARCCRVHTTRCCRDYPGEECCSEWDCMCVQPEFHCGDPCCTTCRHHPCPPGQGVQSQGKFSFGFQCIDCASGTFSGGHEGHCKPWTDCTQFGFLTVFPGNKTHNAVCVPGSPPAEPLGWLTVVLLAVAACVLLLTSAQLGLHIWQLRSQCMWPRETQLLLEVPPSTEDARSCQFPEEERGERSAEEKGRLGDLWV

In the first assay the target is T1, cynoGITR on 293F‐cynoGITR cells. Kind of assay: flow cytometry on cells; 293F‐hGITR or 293F‐cynoGITR cells incubated with antibodies at 4 °C for 1 h, fluorescent anti-rat/human secondary antibody; EC50 of MFI curve. To be noted: one partner purified. For orientation: A flow cytometer gives signals particle by particle.
Take B1: it took 190 pM to reach a half-maximal effect (EC50).

On to B2, for which the EC50 was determined as 418 pM.

Turning to B3, the EC50 stood at 268 pM.

For the molecule B4, the midpoint of the response, the EC50, lay at 235 pM.

With B5, the EC50 was found to be 290 pM.

A further assay has as its target T3, human GITR on 293F‐hGITR cells (Homo sapiens (Human)., UniProt Q9Y5U5-1).
T3 construct: Also used as the target of the functional rows (Jurkat‐hGITR‐NF‐ĸB‐Luc cells made with the same lentiviral construct; endogenous GITR on human T cells)
Described as above. Conditions: one partner purified.
For B1, the EC50 is 190 pM.

With B2, the EC50 worked out at 179 pM.

Regarding B3, the EC50 was found to be 164 pM.

The molecule B4 showed a half-maximal effective concentration (EC50) of 184 pM.

In turn, B5 returned an EC50 of 206 pM.

The next assay addresses T3, human GITR on 293F‐hGITR cells. The assay can be described thus: cell-based or functional assay.
Conditions: not given
As to B1, the “NF‐ĸB luciferase reporter assay, Crosslinking, EC50” value worked out at 7320 pM; the “NF‐ĸB luciferase reporter assay, Crosslinking, Top ratio” value is 16 fold; the “NF‐ĸB luciferase reporter assay, No crosslinking, EC50” value came out at 111 pM; the “NF‐ĸB luciferase reporter assay, No crosslinking, Top ratio” value stood at 9 fold.

With B2, the “NF‐ĸB luciferase reporter assay, Crosslinking, EC50” value turned out to be 6070 pM; the “NF‐ĸB luciferase reporter assay, Crosslinking, Top ratio” value turned out to be 20 fold; the “NF‐ĸB luciferase reporter assay, No crosslinking, EC50” value is 157 pM; the “NF‐ĸB luciferase reporter assay, No crosslinking, Top ratio” value came out at 9 fold.

Turning to B3, the “NF‐ĸB luciferase reporter assay, Crosslinking, EC50” value was found to be 6780 pM; the “NF‐ĸB luciferase reporter assay, Crosslinking, Top ratio” value was 12 fold; the “NF‐ĸB luciferase reporter assay, No crosslinking, EC50” value came to 262 pM; the “NF‐ĸB luciferase reporter assay, No crosslinking, Top ratio” value was determined as 7 fold.

Turning to B4, the “NF‐ĸB luciferase reporter assay, Crosslinking, EC50” value came to 8860 pM; the “NF‐ĸB luciferase reporter assay, Crosslinking, Top ratio” value amounted to 14 fold; the “NF‐ĸB luciferase reporter assay, No crosslinking, EC50” value is 787 pM; the “NF‐ĸB luciferase reporter assay, No crosslinking, Top ratio” value came to 11 fold.

On to B5, for which the “NF‐ĸB luciferase reporter assay, Crosslinking, EC50” value was found to be 7690 pM; the “NF‐ĸB luciferase reporter assay, Crosslinking, Top ratio” value was determined as 13 fold; the “NF‐ĸB luciferase reporter assay, No crosslinking, EC50” value is 275 pM; the “NF‐ĸB luciferase reporter assay, No crosslinking, Top ratio” value was determined as 8 fold.

A further assay concerns the target T2, cynoGITR ECD hFc. Kind of assay: ELISA; indirect ELISA; antigen hFc fusion protein coated on 96-well plates (1 μg·mL^−1 overnight at 4 °C in Fig. 3B), antibody added, detected with anti-rat IgG/hIgG-peroxidase antibody. To be noted: both partners purified.
The molecule B1 yielded an EC50 of 106 pM.

In the case of B2, the EC50 came out at 101 pM.

Molecule B3 registered an EC50 of 111 pM.

On to B4, for which the EC50 amounted to 90 pM.

Molecule B5 showed an EC50 of 89 pM.

The target of the next assay is T4, hGITR ECD hFc (Homo sapiens (Human)., UniProt Q9Y5U5, Thr45Ala).
T4 construct: human GITR (glucocorticoid-induced TNF receptor-related), extracellular domain, Gln26-Glu161 with Thr45Ala, UniProt Q9Y5U5.1; also called human GITR protein; source: FreeStyle 293F, transiently transfected, purified by protein A
The assay is described as above. Conditions: both partners purified.
Regarding B1, the EC50 was 99 pM.

B2: the response was half-maximal at 91 pM (EC50).

In the case of B3, the EC50 worked out at 101 pM.

The molecule B4 registered an EC50 of 88 pM.

Take B5: the response was half-maximal at 93 pM (EC50).

For the next assay, the target named is T4, hGITR ECD hFc. The assay can be described thus: SPR; Biacore T200; hGITR ECD hFc immobilised on a Series S CM5 chip; antibody 0, 3.125, 6.25, 12.5, 25 and 50 nM; association 180 s, dissociation 600 s. To be noted: both partners purified. For orientation: Surface plasmon resonance follows binding to a sensor surface in real time, without labels.
In turn, B1 yielded a Kd of 251 pM.

In turn, B2 gave a Kd of 1030 pM.

The molecule B3 registered a Kd of 537 pM.

Molecule B4 displayed a Kd of 135 pM.

With B5, the Kd worked out at 384 pM.

The target of another assay is T2, cynoGITR ECD hFc. Kind of assay: ELISA; indirect ELISA; antigen hFc fusion protein coated on 96-well plates (1 μg·mL^−1 overnight at 4 °C in Fig. 3B), antibody added, detected with anti-rat IgG/hIgG-peroxidase antibody. To be noted: both partners purified. This is another data set of the same source. A general note: ELISA stands for enzyme-linked immunosorbent assay.
For the molecule B4, the concentration giving a half-maximal response (EC50) was found to be 63.7 pM.

A further assay deals with T5, human OX40 ECD hFc (Homo sapiens (Human)., UniProt P43489).
T5 construct: human OX40, extracellular domain
T5 sequence (P43489 29-214): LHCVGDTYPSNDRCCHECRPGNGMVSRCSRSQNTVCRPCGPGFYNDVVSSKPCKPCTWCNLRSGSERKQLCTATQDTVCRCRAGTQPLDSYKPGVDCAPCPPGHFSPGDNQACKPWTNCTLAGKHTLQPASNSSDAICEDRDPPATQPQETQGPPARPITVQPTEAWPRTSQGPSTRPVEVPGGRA
The assay is described as above. Conditions: both partners purified.
Turning to B3, the binding result is on record as “no binding”.

In the case of B5, the binding result was “no binding”.

The target in a further assay is T4, hGITR ECD hFc. The description is as above. Conditions: both partners purified. This is another data set of the same source.
Molecule B4 returned an EC50 of 71 pM.

The target in the next assay is T6, 4‐1BB ECD hFc (Homo sapiens (Human)., UniProt Q07011).
T6 construct: 4-1BB, extracellular domain; called a paralogue of human GITR; The legend's word 'human' stands before OX40 only; human is likely
T6 sequence (Q07011 24-186): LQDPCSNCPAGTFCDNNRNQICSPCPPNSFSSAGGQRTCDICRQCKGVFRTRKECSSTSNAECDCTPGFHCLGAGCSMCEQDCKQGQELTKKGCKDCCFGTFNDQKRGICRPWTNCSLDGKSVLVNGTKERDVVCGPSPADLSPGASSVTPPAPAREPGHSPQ
The assay is described as above. Conditions: both partners purified.
Turning to B3, the binding result is “no binding”.

In the case of B5, the binding result is recorded as “no binding”.
